# Data taken from patent US20180086841A1.
# Columns and labels:
# H60A [1] = experiment: flow cytometry on CHO-K1 transfectants, left sub-column
# K31A [2] = experiment: as above
# R93A [3] = experiment: as above
# N88A [4] = experiment: as above
# W13A [5] = experiment: as above
# P44A [6] = experiment: as above
# G16A [7] = experiment: as above
# V49A [8] = experiment: as above
# K17A [9] = experiment: as above
# V30A [10] = experiment: as above
# human CD27 (human) [11] = biological target: human CD27 (human) (UniProt P26842); experiment: cell ELISA on CD27-transfected CHOK1 cells, n=2
# [12] = biological target: Macaca mulatta CD27 (mmCD27) (Macaca mulatta (rhesus) / Macaca fascicularis (cynomolgus)); experiment: cell ELISA on CD27-transfected CHOK1 cells, n=2
# [13] = biological target: human CD27 (A59T) (human) (UniProt P26842); experiment: cell ELISA on CD27-transfected CHOK1 cells, n=2
# human CD27 (human) [14] = biological target: human CD27 (human) (UniProt P26842); experiment: competition cell ELISA on CHO-hCD27; competitor detected: mouse hCD27.15 at 1 µg/ml
# human CD27 (human) [15] = biological target: human CD27 (human) (UniProt P26842); experiment: cell-based or functional assay
# [16] = biological target: Macaca mulatta CD27 (mmCD27) (Macaca mulatta (rhesus) / Macaca fascicularis (cynomolgus)); experiment: cell-based or functional assay
# [17] = biological target: human CD27 (A59T) (human) (UniProt P26842); experiment: cell-based or functional assay
# [18] = biological target: Macaca mulatta CD27 (mmCD27) (Macaca mulatta (rhesus) / Macaca fascicularis (cynomolgus)); experiment: flow cytometry MFI, CD8+ T cells in rhesus peripheral blood, n=4
# human CD27 (human) [19] = biological target: human CD27 (human) (UniProt P26842); experiment: flow cytometry MFI, CD8+ T cells in human peripheral blood, n=4
# W90A [20] = experiment: flow cytometry on CHO-K1 transfectants, right sub-column, cell hatched (loss of binding)
# R87A [21] = experiment: as above
# K38A = experiment: flow cytometry on CHO-K1 transfectants, right sub-column
# Q41A = experiment: as above
# S63A = experiment: as above
# D32A = experiment: as above
# I46A = experiment: as above
# Q15A = experiment: as above
# Q91A = experiment: as above
# H60A [22] = experiment: as above
# R37A = experiment: as above
# K31A [23] = experiment: as above
# G89A = experiment: as above
# H36A = experiment: as above
# R93A [24] = experiment: as above
# F28A = experiment: as above
# D43A = experiment: as above
# N88A [25] = experiment: as above
# W13A [26] = experiment: as above
# P44A [27] = experiment: as above
# G16A [28] = experiment: as above
# V49A [29] = experiment: as above
# K17A [30] = experiment: as above
# P8A = experiment: as above
# E9A = experiment: as above
# V30A [31] = experiment: as above
# R10A = experiment: as above
# human CD27 (human) [32] = biological target: human CD27 (human) (UniProt P26842); experiment: flow cytometry MFI, CD4+ T cells in human peripheral blood, n=4
# [33] = biological target: Macaca mulatta CD27 (mmCD27) (Macaca mulatta (rhesus) / Macaca fascicularis (cynomolgus)); experiment: flow cytometry MFI, CD4+ T cells in rhesus peripheral blood, n=4
# W90A [34] = experiment: flow cytometry on CHO-K1 transfectants, left sub-column, cell hatched (loss of binding)
# R87A [35] = experiment: as above
# Chain of 1F5-hIgG1 (antibody) (VH): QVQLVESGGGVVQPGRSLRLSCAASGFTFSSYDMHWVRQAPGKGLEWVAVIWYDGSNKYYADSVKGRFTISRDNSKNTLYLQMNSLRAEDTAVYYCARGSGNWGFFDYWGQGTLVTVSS
# Chain of 1F5-hIgG1 (antibody) (VL): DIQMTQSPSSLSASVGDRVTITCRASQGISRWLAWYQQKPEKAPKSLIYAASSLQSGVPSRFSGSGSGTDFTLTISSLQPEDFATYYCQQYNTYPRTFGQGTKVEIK
# Chain of N88A (receptor chain, as listed by the source N88A N88A limits assumed): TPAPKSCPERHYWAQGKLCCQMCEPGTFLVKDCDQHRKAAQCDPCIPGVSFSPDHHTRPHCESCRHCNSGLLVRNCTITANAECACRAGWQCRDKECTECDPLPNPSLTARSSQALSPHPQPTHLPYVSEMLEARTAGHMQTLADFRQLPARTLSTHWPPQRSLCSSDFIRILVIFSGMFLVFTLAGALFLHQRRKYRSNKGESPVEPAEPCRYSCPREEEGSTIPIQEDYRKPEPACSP
# Chain of G16A (receptor chain, as listed by the source G16A G16A limits assumed): as the sequence (receptor chain, as listed by the source N88A N88A limits assumed) above, with G16A, A88N counted along it
# Chain of P44A (receptor chain, as listed by the source P44A P44A limits assumed): as the sequence (receptor chain, as listed by the source N88A N88A limits assumed) above, with P44A, A88N counted along it
# Chain of H60A (receptor chain, as listed by the source H60A H60A limits assumed): as the sequence (receptor chain, as listed by the source N88A N88A limits assumed) above, with H60A, A88N counted along it
# Chain of V49A (receptor chain, as listed by the source V49A V49A limits assumed): as the sequence (receptor chain, as listed by the source N88A N88A limits assumed) above, with V49A, A88N counted along it
# Chain of K17A (receptor chain, as listed by the source K17A K17A limits assumed): as the sequence (receptor chain, as listed by the source N88A N88A limits assumed) above, with K17A, A88N counted along it
# Chain of R87A (receptor chain, as listed by the source R87A R87A limits assumed): as the sequence (receptor chain, as listed by the source N88A N88A limits assumed) above, with R87A, A88N counted along it
# Chain of V30A (receptor chain, as listed by the source V30A V30A limits assumed): as the sequence (receptor chain, as listed by the source N88A N88A limits assumed) above, with V30A, A88N counted along it
# Chain of R93A (receptor chain, as listed by the source R93A R93A limits assumed): as the sequence (receptor chain, as listed by the source N88A N88A limits assumed) above, with A88N, R93A counted along it
# Chain of K31A (receptor chain, as listed by the source K31A K31A limits assumed): as the sequence (receptor chain, as listed by the source N88A N88A limits assumed) above, with K31A, A88N counted along it
# Chain of W13A (receptor chain, as listed by the source W13A W13A limits assumed): as the sequence (receptor chain, as listed by the source N88A N88A limits assumed) above, with W13A, A88N counted along it
# Chain of W90A (receptor chain, as listed by the source W90A W90A limits assumed): as the sequence (receptor chain, as listed by the source N88A N88A limits assumed) above, with A88N, W90A counted along it
# Chain of K38A (receptor chain, as listed by the source K38A K38A limits assumed): as the sequence (receptor chain, as listed by the source N88A N88A limits assumed) above, with K38A, A88N counted along it
# Chain of Q41A (receptor chain, as listed by the source Q41A Q41A limits assumed): as the sequence (receptor chain, as listed by the source N88A N88A limits assumed) above, with Q41A, A88N counted along it
# Chain of F28A (receptor chain, as listed by the source F28A F28A limits assumed): as the sequence (receptor chain, as listed by the source N88A N88A limits assumed) above, with F28A, A88N counted along it
# Chain of D43A (receptor chain, as listed by the source D43A D43A limits assumed): as the sequence (receptor chain, as listed by the source N88A N88A limits assumed) above, with D43A, A88N counted along it
# Chain of I46A (receptor chain, as listed by the source I46A I46A limits assumed): as the sequence (receptor chain, as listed by the source N88A N88A limits assumed) above, with I46A, A88N counted along it
# Chain of D32A (receptor chain, as listed by the source D32A D32A limits assumed): as the sequence (receptor chain, as listed by the source N88A N88A limits assumed) above, with D32A, A88N counted along it
substance,measurement,setting,value
1F5-hIgG1 (antibody),"binding, WT hCD27 = 100 (GM FITC)",H60A [1],176%
same,"binding, WT hCD27 = 100 (GM FITC)",K31A [2],205%
same,"binding, WT hCD27 = 100 (GM FITC)",R93A [3],120%
same,"binding, WT hCD27 = 100 (GM FITC)",N88A [4],153%
same,"binding, WT hCD27 = 100 (GM FITC)",W13A [5],89.5%
same,"binding, WT hCD27 = 100 (GM FITC)",P44A [6],150%
same,"binding, WT hCD27 = 100 (GM FITC)",G16A [7],96%
same,"binding, WT hCD27 = 100 (GM FITC)",V49A [8],143%
same,"binding, WT hCD27 = 100 (GM FITC)",K17A [9],95.1%
same,"binding, WT hCD27 = 100 (GM FITC)",V30A [10],171%
same,EC50,human CD27 (human) [11],0.325 nM
same,EC50,[12],0.193 nM
same,EC50,[13],0.326 nM
same,IC50 (read off the curve),human CD27 (human) [14],4 nM
same,"NF-κB-luciferase reporter assay, Emax",human CD27 (human) [15],1.48 fold change
same,"NF-κB-luciferase reporter assay, Emax",[16],1.33 fold change
same,"NF-κB-luciferase reporter assay, Emax",[17],1.3 fold change
same,EC50,[18],1.92 nM
same,EC50,human CD27 (human) [19],1.3 nM
same,"binding, WT hCD27 = 100 (GM FITC)",W90A [20],10%
same,"binding, WT hCD27 = 100 (GM FITC)",R87A [21],7.8%
same,"binding, WT hCD27 = 100 (GM FITC)",K38A,94.2%
same,"binding, WT hCD27 = 100 (GM FITC)",Q41A,66.3%
same,"binding, WT hCD27 = 100 (GM FITC)",S63A,121%
same,"binding, WT hCD27 = 100 (GM FITC)",D32A,59.6%
same,"binding, WT hCD27 = 100 (GM FITC)",I46A,69.7%
same,"binding, WT hCD27 = 100 (GM FITC)",Q15A,127%
same,"binding, WT hCD27 = 100 (GM FITC)",Q91A,115%
same,"binding, WT hCD27 = 100 (GM FITC)",H60A [22],110%
same,"binding, WT hCD27 = 100 (GM FITC)",R37A,88%
same,"binding, WT hCD27 = 100 (GM FITC)",K31A [23],120%
same,"binding, WT hCD27 = 100 (GM FITC)",G89A,68.5%
same,"binding, WT hCD27 = 100 (GM FITC)",H36A,80%
same,"binding, WT hCD27 = 100 (GM FITC)",R93A [24],85.5%
same,"binding, WT hCD27 = 100 (GM FITC)",F28A,46.2%
same,"binding, WT hCD27 = 100 (GM FITC)",D43A,86.1%
same,"binding, WT hCD27 = 100 (GM FITC)",N88A [25],119%
same,"binding, WT hCD27 = 100 (GM FITC)",W13A [26],82.8%
same,"binding, WT hCD27 = 100 (GM FITC)",P44A [27],83.7%
same,"binding, WT hCD27 = 100 (GM FITC)",G16A [28],101%
same,"binding, WT hCD27 = 100 (GM FITC)",V49A [29],92.8%
same,"binding, WT hCD27 = 100 (GM FITC)",K17A [30],112%
same,"binding, WT hCD27 = 100 (GM FITC)",P8A,73.1%
same,"binding, WT hCD27 = 100 (GM FITC)",E9A,120%
same,"binding, WT hCD27 = 100 (GM FITC)",V30A [31],88.9%
same,"binding, WT hCD27 = 100 (GM FITC)",R10A,113%
same,EC50,human CD27 (human) [32],1.54 nM
same,EC50,[33],1.58 nM
same,"binding, WT hCD27 = 100 (GM FITC)",W90A [34],42.5%
same,"binding, WT hCD27 = 100 (GM FITC)",R87A [35],40.8%
